Literature values as cited in patent US20250326839A1, “TREATMENT OF DISEASES RELATED TO COLONY-STIMULATING FACTOR 1 RECEPTOR DYSFUNCTION USING TREM2 AGONISTS” (Vigil Neuroscience, Inc., priority 2020, published 2025).
Residue numbers refer to the chain shown, from its start. In names and notes the source's numbering stands.

B1: V49: 6E7 variant: VH T30N, I50T, Y60L, Q99S; VL L54R, F94Y (antibody, V domains shown)
VH: EVQLVQSGAEVKKPGESLKISCKGSGYSFNSYWIAWVRQMPGKGLEWMGTIYPGDSDTRLSPSFQGQVTISADKSISTAYLQWSSLKASDTAMYFCARSRTFYYDSSDYFDYWGQGTLVTVSS
VL: DIQMTQSPSSVSASVGDRVTITCRASQGISSWLAWYQQKPGKAPKLLIYAASSRQNGVPSRFSGSGSGTDFTLTISSLQPEDFATYFCQQADSYPRTFGQGTKLEIK
B2: V51: 6E7 variant: VH T58V, Q99G, Y112N; VL L54R (antibody, V domains shown)
VH: B1 VH with N30T, T50I, T58V, L60Y, S99G, Y112N
VL: B1 VL with Y94F
B3: V63: 6E7 variant: VH T30R, Q99S; VL N56R, S93R (antibody, V domains shown)
VH: B1 VH with N30R, T50I, L60Y
VL: B1 VL with R54L, N56R, S93R, Y94F
B4: V74: 6E7 variant: VH T30A, T58V, Q99G; VL N56L (antibody, V domains shown)
VH: B1 VH with N30A, T50I, T58V, L60Y, S99G
VL: B1 VL with R54L, N56L, Y94F
B5: V64: 6E7 variant: VH T30Q, Q99G; VL Q55A, F94Y (antibody, V domains shown)
VH: B1 VH with N30Q, T50I, L60Y, S99G
VL: B1 VL with R54L, Q55A
B6: V72: 6E7 variant: VH A35G, Q99G; VL Q55V, F94Y (antibody, V domains shown)
VH: B1 VH with N30T, A35G, T50I, L60Y, S99G
VL: B1 VL with R54L, Q55V
B7: V62: 6E7 variant: VH T30G, S61A, D108G; VL N56R, Q89G (antibody, V domains shown)
VH: B1 VH with N30G, T50I, L60Y, S61A, S99Q, D108G
VL: B1 VL with R54L, N56R, Q89G, Y94F
B8: V60: 6E7 variant: VH S28H, T58V, F110S; VL N56R, Q89G (antibody, V domains shown)
VH: B1 VH with S28H, N30T, T50I, T58V, L60Y, S99Q, F110S
VL: B1 VL with R54L, N56R, Q89G, Y94F
B9: V85: 6E7 variant: VH T30R, I50T, Q99S; VL L54R (antibody, V domains shown)
VH: B1 VH with N30R, L60Y
VL: B1 VL with Y94F
B10: V50: 6E7 variant: VH T30G, I50V, F110L; VL L54R, F94L (antibody, V domains shown)
VH: B1 VH with N30G, T50V, L60Y, S99Q, F110L
VL: B1 VL with Y94L
B11: V73: 6E7 variant: VH T30G, S63G, Q99G; VL L54R, F94Y (antibody, V domains shown)
VH: B1 VH with N30G, T50I, L60Y, S63G, S99G
VL: B1 VL
B12: V52: 6E7 variant: VH T30E, Q99G; VL N56R, S93R (antibody, V domains shown)
VH: B1 VH with N30E, T50I, L60Y, S99G
VL: B1 VL with R54L, N56R, S93R, Y94F
B13: V61: 6E7 variant: VH T30S, S61N, Q99G; VL Q55V, F94L (antibody, V domains shown)
VH: B1 VH with N30S, T50I, L60Y, S61N, S99G
VL: B1 VL with R54L, Q55V, Y94L
B14: V75: 6E7 variant: VH Q99G; VL N56A, F94Y (antibody, V domains shown)
VH: B1 VH with N30T, T50I, L60Y, S99G
VL: B1 VL with R54L, N56A
B15: V84: 6E7 variant: VH S28G, F110S; VL A50G (antibody, V domains shown)
VH: B1 VH with S28G, N30T, T50I, L60Y, S99Q, F110S
VL: B1 VL with A50G, R54L, Y94F
B16: V76: 6E7 variant: VH T30G, S63E, F110S; VL N56K (antibody, V domains shown)
VH: B1 VH with N30G, T50I, L60Y, S63E, S99Q, F110S
VL: B1 VL with R54L, N56K, T69R, Y94F
B17: V86: 6E7 variant: VH T30G, I34L, Q65E, Q99S; VL L54R (antibody, V domains shown)
VH: B1 VH with N30G, I34L, T50I, L60Y, Q65E
VL: B1 VL with Y94F

Target: T1, TREM2 (Homo sapiens, UniProt Q9NZC2)
T1 sequence (Q9NZC2 19-230): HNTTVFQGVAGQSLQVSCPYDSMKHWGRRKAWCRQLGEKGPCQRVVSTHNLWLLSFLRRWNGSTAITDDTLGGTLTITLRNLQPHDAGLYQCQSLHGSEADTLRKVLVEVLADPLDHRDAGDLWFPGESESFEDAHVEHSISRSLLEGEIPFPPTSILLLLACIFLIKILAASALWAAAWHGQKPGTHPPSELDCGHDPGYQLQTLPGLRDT
Conditions: cited from earlier work; for Binding Signal (fold over 6E7 parental antibody) 1st screen 110 nM or 10 nM: 10 nM Ab concentration (values not marked *)

Row | Molecule | Binding Signal (fold over 6E7 parental antibody) 1st screen 110 nM or 10 nM | Binding Signal (fold over 6E7 parental antibody) 2nd screen 2 nM | Binding Signal (fold over 6E7 parental antibody) 2nd screen 10 nM
1 | B1 | 6.51 fold over 6E7 parental antibod | 5.02 fold over 6E7 parental antibod | 6.58 fold over 6E7 parental antibod
2 | B2 | 2.81 fold over 6E7 parental antibod | 1.83 fold over 6E7 parental antibod | 3.18 fold over 6E7 parental antibod
3 | B3 | 3.76 fold over 6E7 parental antibod | 4.91 fold over 6E7 parental antibod | 3.71 fold over 6E7 parental antibod
4 | B4 | 3.94 fold over 6E7 parental antibod | 2.54 fold over 6E7 parental antibod | 4.01 fold over 6E7 parental antibod
5 | B5 | 5.41 fold over 6E7 parental antibod | 4.88 fold over 6E7 parental antibod | 5.48 fold over 6E7 parental antibod
6 | B6 | 3.64 fold over 6E7 parental antibod | 2.50 fold over 6E7 parental antibod | 4.01 fold over 6E7 parental antibod
7 | B7 | 2.49 fold over 6E7 parental antibod | 1.87 fold over 6E7 parental antibod | 2.89 fold over 6E7 parental antibod
8 | B8 | 3.26 fold over 6E7 parental antibod | 3.35 fold over 6E7 parental antibod | 3.63 fold over 6E7 parental antibod
9 | B9 | 5.41 fold over 6E7 parental antibod | 5.41 fold over 6E7 parental antibod | 5.37 fold over 6E7 parental antibod
10 | B10 | 4.10 fold over 6E7 parental antibod | 3.39 fold over 6E7 parental antibod | 4.16 fold over 6E7 parental antibod
11 | B11 | 5.12 fold over 6E7 parental antibod | 4.17 fold over 6E7 parental antibod | 5.44 fold over 6E7 parental antibod
12 | B12 | 3.00 fold over 6E7 parental antibod | 1.78 fold over 6E7 parental antibod | 3.09 fold over 6E7 parental antibod
13 | B13 | 5.08 fold over 6E7 parental antibod | 3.63 fold over 6E7 parental antibod | 5.22 fold over 6E7 parental antibod
14 | B14 | 4.64 fold over 6E7 parental antibod | 3.74 fold over 6E7 parental antibod | 4.52 fold over 6E7 parental antibod
15 | B15 | 1.44 fold over 6E7 parental antibod | 1.45 fold over 6E7 parental antibod | 1.62 fold over 6E7 parental antibod
16 | B16 | 4.57 fold over 6E7 parental antibod | 4.34 fold over 6E7 parental antibod | 4.93 fold over 6E7 parental antibod
17 | B17 | 4.80 fold over 6E7 parental antibod | 5.17 fold over 6E7 parental antibod | 5.02 fold over 6E7 parental antibod
